From patent US20150045310A1 come the findings set out here.

Sequences and labels used below:
B1: Bim BH3 14-mer variant M2-2 displayed on eCPX (peptide, not shown: large carriers; small tags and cut ends)
peptide: WVAQLLRRIGDEVN-{linker-eCPX}
modifications: reading uncertain; also: printed as Trp-Val-Ala-Gln-Leu-Leu-Arg-Arg-Ile-Gly-Asp-Glu-Val-Asn
B2: Bim BH3 14-mer variant M2-4 displayed on eCPX (peptide, not shown: large carriers; small tags and cut ends)
peptide: WLAQLLRRIGDEIN-{linker-eCPX}
modifications: reading uncertain; also: printed as Trp-Leu-Ala-Gln-Leu-Leu-Arg-Arg-Ile-Gly-Asp-Glu-Ile-Asn

Where no end group is shown, it is not given here. eCPX = enhanced circularly permuted OmpX display scaffold; linker = not defined here

One test deals with A1 (biotinylated pro-survival Bcl-2 family protein) (UniProt Q16548). Briefly: apparent Kd, bacterial surface display and flow cytometry. A general note: A flow cytometer gives signals particle by particle.
With B1, the fold affinity improvement against wild-type Bim 14-mer was found to be 3 fold.
Same read-out and setting: for B2 the value was 6 fold.

The target is the same in a further test. Briefly: flow cytometry of E. coli displaying the peptide on eCPX, biotinylated target + streptavidin-PE; apparent Kd.
As to WVAQWLRRWGDEFN (peptide, not shown: large carriers; small tags and cut ends, also: displayed as fusion to eCPX scaffold (letters not given here)) [Bim BH3 14-mer variant X2-3 displayed on eCPX], the Kd worked out at 30.2 nM.
Same read-out and setting: for WLAQLLRRYGDEFN (peptide, not shown: large carriers; small tags and cut ends, also: displayed as fusion to eCPX scaffold (letters not given here)) [Bim BH3 14-mer variant X2-8 displayed on eCPX] the value was 40.5 nM; for B1, 9.99 nM; for B2, 4.18 nM.
As to WIAQQLRRIGDEFN (peptide, not shown: large carriers; small tags and cut ends, not fully specified) [Bim BH3 14-mer E151Q (pseudo-wild-type) displayed on eCPX], the Kd came out at 29.6 nM.
Still for that read-out and setting: in the case of WIAQELRRIGDEFN-{linker-eCPX} (peptide, not shown: large carriers; small tags and cut ends, reading uncertain) [wild-type Bim BH3 14-mer peptide (residues 147-160) displayed on eCPX] it was 26.9 nM.
